Source: article PMC12238530, “Dynamic SAS-6 phosphorylation aids centrosome duplication and elimination in C. elegans oogenesis” (EMBO Reports, 2025)

Assays:
[1] = target: T1, GST-SAS-6 full-length (FL) (C. elegans, UniProt O62479 1-492); assay: pull-down; GST pulldown of purified His-tagged SAS-6 proteins by purified GST-SAS-6 FL or truncations, with or without pre-phosphorylation by CDK1; α-His immunoblot and CBB staining (Fig. 5A, 5C, 5D); conditions: both partners purified
T1 construct: SAS-6, C. elegans, full length (1-492); pGEX6P1-GST vector; also called full-length SAS-6 coupled to beads; source: E. coli BL21 (DE3), purified (Glutathione Sepharose 4B); not shown: GST, N-terminal, kept
T1 sequence (looked up): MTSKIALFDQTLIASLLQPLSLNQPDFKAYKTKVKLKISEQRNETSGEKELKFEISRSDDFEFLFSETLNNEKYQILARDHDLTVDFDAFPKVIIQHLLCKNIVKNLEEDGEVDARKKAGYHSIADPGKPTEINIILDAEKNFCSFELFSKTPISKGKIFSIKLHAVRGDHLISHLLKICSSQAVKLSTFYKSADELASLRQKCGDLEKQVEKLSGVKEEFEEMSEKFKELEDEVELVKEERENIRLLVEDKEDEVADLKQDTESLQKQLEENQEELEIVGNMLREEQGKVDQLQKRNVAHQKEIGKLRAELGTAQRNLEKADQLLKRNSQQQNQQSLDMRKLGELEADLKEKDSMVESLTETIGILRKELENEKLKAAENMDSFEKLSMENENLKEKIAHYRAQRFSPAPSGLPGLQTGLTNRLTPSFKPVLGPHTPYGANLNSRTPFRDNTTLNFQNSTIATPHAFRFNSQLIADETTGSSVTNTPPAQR

GST-SAS-6(∆N) = target: T2, GST-SAS-6(∆N) (C. elegans, UniProt O62479 171-492); assay: bead recruitment assay; GST-SAS-6 FL or truncations coupled to agarose beads; recruitment of mCherry-His tagged SAS-6 C-terminus seen by fluorescence (Fig. 5B, 5E); conditions: both partners purified
T2 construct: SAS-6, C. elegans, N-terminal head domain deleted (∆1–170), so residues 171-492; also called GST-SAS-6-ΔN; source: E. coli BL21 (DE3), purified (Glutathione Sepharose 4B); not shown: GST, N-terminal, kept
T2 sequence (looked up): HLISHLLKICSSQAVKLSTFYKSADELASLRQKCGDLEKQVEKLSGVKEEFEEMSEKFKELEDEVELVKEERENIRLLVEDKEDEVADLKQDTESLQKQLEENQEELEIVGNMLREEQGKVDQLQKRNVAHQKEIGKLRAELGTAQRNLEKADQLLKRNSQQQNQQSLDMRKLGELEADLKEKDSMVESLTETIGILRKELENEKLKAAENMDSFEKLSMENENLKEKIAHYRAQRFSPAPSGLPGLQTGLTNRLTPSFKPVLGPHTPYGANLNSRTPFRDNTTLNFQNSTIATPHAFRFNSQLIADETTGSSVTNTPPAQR

B1: SAS-6-C-mCherry-His (domain or fragment, C. elegans, UniProt O62479 401-492, looked up)
chain: HYRAQRFSPAPSGLPGLQTGLTNRLTPSFKPVLGPHTPYGANLNSRTPFRDNTTLNFQNSTIATPHAFRFNSQLIADETTGSSVTNTPPAQR
notes: SAS-6, C. elegans, C-terminal unstructured region, residues 401-492; Cloned in pET.28a-mCherry; the primer's vector part encodes LFQGP before the NdeI site, so a further N-terminal tag may be there; also called mCherry-His tagged SAS-6 C-terminus; SAS-6 C-terminus; source: E. coli BL21 (DE3), purified (Ni-NTA); not shown: mCherry, C-terminal, kept; His, C-terminal, kept
binding result [1]: binds
binding result (GST-SAS-6(∆N)): binds
